# Numbering of substitutions follows the chain as printed.
# T1: Human CD98, endogenous on HCC38, Molt-4 and Jurkat human cancer cells (human)
# T1 chain: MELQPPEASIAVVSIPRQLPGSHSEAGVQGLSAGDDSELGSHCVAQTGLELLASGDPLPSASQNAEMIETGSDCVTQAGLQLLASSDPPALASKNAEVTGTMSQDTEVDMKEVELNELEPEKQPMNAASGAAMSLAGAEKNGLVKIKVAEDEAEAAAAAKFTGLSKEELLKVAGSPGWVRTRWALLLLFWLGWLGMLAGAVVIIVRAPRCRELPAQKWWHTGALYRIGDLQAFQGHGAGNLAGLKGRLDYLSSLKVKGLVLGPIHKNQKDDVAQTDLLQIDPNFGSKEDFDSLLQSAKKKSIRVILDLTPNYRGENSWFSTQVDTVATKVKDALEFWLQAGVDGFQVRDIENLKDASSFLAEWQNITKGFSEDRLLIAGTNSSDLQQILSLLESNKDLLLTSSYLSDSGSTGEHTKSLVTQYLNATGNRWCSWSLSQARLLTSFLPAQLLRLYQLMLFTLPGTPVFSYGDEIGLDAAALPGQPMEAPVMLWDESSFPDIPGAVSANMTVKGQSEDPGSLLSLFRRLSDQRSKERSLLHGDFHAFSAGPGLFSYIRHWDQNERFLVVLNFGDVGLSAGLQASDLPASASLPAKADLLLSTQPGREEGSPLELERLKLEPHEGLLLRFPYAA
# T2: human CD98, endogenously expressed on Molt-4 human acute lymphoblastic leukemia cells (human)
# T2 chain: T1 chain
# B1: Ab1-CZ (Ab1 conjugated to Bcl-xL inhibitor synthon CZ) (antibody, V domains shown)
# VH: EVKLVESGGGLVQPGGSLRLSCATSGFTFTDYYMSWVRQPPGKALEWLGFIRNPANVYTTEYSASVKGRFTISRDNSQSILYLQMNTLRAEDSATYYCARASYGNSEGWFAYWGQGTLVTVSA
# VL: DIVMSQSPSSLAVSVGEKVTMSCKSSQNLLYNNNQKNYLAWYQQKPGQSPKLLIYWASTRESGVPDRFTGSGSGTDFTLTISSVKAEDLAVYYCQQYYSYPRTFGGGTKLEIK
# B2: Ab4-CZ (Ab4 conjugated to Bcl-xL inhibitor synthon CZ) (antibody, V domains shown)
# VH: B1 VH with A23T, P54K, N56T, V57I
# VL: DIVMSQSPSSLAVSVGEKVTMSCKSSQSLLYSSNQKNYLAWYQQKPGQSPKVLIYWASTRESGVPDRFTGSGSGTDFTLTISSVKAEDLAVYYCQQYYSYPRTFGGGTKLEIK
# B3: CD98 (CL-huAb104)-AAD (antibody, human IgG1, kappa, L234A L235A, V domains shown)
# VH: EVQLVESGGGLVQPGGSLRLSCATSGFTFIDYYMSWVRQAPGKGLEWLGFIRNKAYGYTTEYSASVKGRFTISRDNSKSILYLQMNSLKTEDTAVYYCTRDRPAWFVYWGQGTLVTVSS
# VL: DIVMTQTPLSLPVTPGEPASISCKSSQSLLYSSNQKNYLAWYLQKPGQSPQLLIYWASTRESGVPDRFSGSGSGTDFTLKISRVEAEDVGVYYCQQYYSYPYTFGGGTKVEIKR
# modifications: synthon AAD on reduced interchain cysteines (sites not given)
# B4: CD98 (CL-huAb102)-ZT (antibody, human IgG1, kappa, L234A L235A, V domains shown)
# VH: B3 VH with Y56N, G57R
# VL: B3 VL
# modifications: synthon ZT on reduced interchain cysteines (sites not given)
# B5: CD98 (CL-huAb104)-LB (antibody, human IgG1, kappa, L234A L235A, V domains shown)
# VH: B3 VH
# VL: B3 VL
# modifications: synthon LB on reduced interchain cysteines (sites not given)
# B6: CD98 (CL-huAb108)-CZ (antibody, human IgG1, kappa, L234A L235A, V domains shown)
# VH: EVQLVQSGAEVKKPGASVKVSCKASGFTFSDYTMAWVRQAPGQGLEWVATIIYSGRGTYYRDAVKGRFTITRDNSTSTLYLELSSLRSEDTAVYYCARQSDDTYYYWGYFDYWGQGTMVTVSS
# VL: B3 VL with S22N, Y31F, S33G, E61Q, V91I, S99D, Y100V, G106Q, V110L
# modifications: synthon CZ on reduced interchain cysteines (sites not given)
# B7: CD98 (CL-huAb108)-ZT (antibody, human IgG1, kappa, L234A L235A, V domains shown)
# VH: B6 VH
# VL: B3 VL with S22N, Y31F, S33G, E61Q, V91I, S99D, Y100V, G106Q, V110L
# modifications: synthon ZT on reduced interchain cysteines (sites not given)
# B8: CD98 (CL-huAb110)- LB (antibody, human IgG1, kappa, L234A L235A, V domains shown)
# VH: B6 VH with S54D, G55A
# VL: B3 VL with S22N, Y31F, S33G, E61Q, V91I, Y100S, G106Q, V110L
# modifications: synthon LB on reduced interchain cysteines (sites not given)
# B9: CD98 (CL-huAb108)-AAD (antibody, human IgG1, kappa, L234A L235A, V domains shown)
# VH: B6 VH
# VL: B3 VL with S22N, Y31F, S33G, E61Q, V91I, S99D, Y100V, G106Q, V110L
# modifications: synthon AAD on reduced interchain cysteines (sites not given)
# B10: CD98 (CL-huAb104)-ZZ (antibody, human IgG1, kappa, L234A L235A, V domains shown)
# VH: B3 VH
# VL: B3 VL
# modifications: synthon ZZ on reduced interchain cysteines (sites not given)
# B11: CD98 (CL-huAb102)-ZZ (antibody, human IgG1, kappa, L234A L235A, V domains shown)
# VH: B3 VH with Y56N, G57R
# VL: B3 VL
# modifications: synthon ZZ on reduced interchain cysteines (sites not given)
# B12: CD98 (CL-huAb104)-CZ (antibody, human IgG1, kappa, L234A L235A, V domains shown)
# VH: B3 VH
# VL: B3 VL
# modifications: synthon CZ on reduced interchain cysteines (sites not given)
# B13: CD98 (CL-huAb104)-ZT (antibody, human IgG1, kappa, L234A L235A, V domains shown)
# VH: B3 VH
# VL: B3 VL
# modifications: synthon ZT on reduced interchain cysteines (sites not given)
# B14: CD98 (CL-huAb110)-WD (antibody, human IgG1, kappa, L234A L235A, V domains shown)
# VH: B6 VH with S54D, G55A
# VL: B3 VL with S22N, Y31F, S33G, E61Q, V91I, Y100S, G106Q, V110L
# modifications: synthon WD on reduced interchain cysteines (sites not given)
# B15: CD98 (CL-huAb102)-CZ (antibody, human IgG1, kappa, L234A L235A, V domains shown)
# VH: B3 VH with Y56N, G57R
# VL: B3 VL
# modifications: synthon CZ on reduced interchain cysteines (sites not given)
# B16: CD98 (CL-huAb104)-WD (antibody, human IgG1, kappa, L234A L235A, V domains shown)
# VH: B3 VH
# VL: B3 VL
# modifications: synthon WD on reduced interchain cysteines (sites not given)
# B17: CD98 (CL-huAb102)-WD (antibody, human IgG1, kappa, L234A L235A, V domains shown)
# VH: B3 VH with Y56N, G57R
# VL: B3 VL
# modifications: synthon WD on reduced interchain cysteines (sites not given)
# B18: CD98 (CL-huAb108-ZZ (antibody, human IgG1, kappa, L234A L235A, V domains shown)
# VH: B6 VH
# VL: B3 VL with S22N, Y31F, S33G, E61Q, V91I, S99D, Y100V, G106Q, V110L
# modifications: synthon ZZ on reduced interchain cysteines (sites not given)
# B19: CD98 (CL-huAb110)-AAD (antibody, human IgG1, kappa, L234A L235A, V domains shown)
# VH: B6 VH with S54D, G55A
# VL: B3 VL with S22N, Y31F, S33G, E61Q, V91I, Y100S, G106Q, V110L
# modifications: synthon AAD on reduced interchain cysteines (sites not given)
# B20: CD98 (CL-huAb102)-LB (antibody, human IgG1, kappa, L234A L235A, V domains shown)
# VH: B3 VH with Y56N, G57R
# VL: B3 VL
# modifications: synthon LB on reduced interchain cysteines (sites not given)
# B21: CD98 (CL-huAb110)-ZT (antibody, human IgG1, kappa, L234A L235A, V domains shown)
# VH: B6 VH with S54D, G55A
# VL: B3 VL with S22N, Y31F, S33G, E61Q, V91I, Y100S, G106Q, V110L
# modifications: synthon ZT on reduced interchain cysteines (sites not given)
# Molecular target: T1, Human CD98, endogenous on HCC38, Molt-4 …
# Assay: cell-based or functional assay
"ADC potency, IC50 (nM), HCC38 growth inhibition [nM]","ADC potency, IC50 (nM), Jurkat growth inhibition [nM]","ADC potency, IC50 (nM), Molt-4 growth inhibition [nM]",Binder
0.998,0.05,0.053,B1
0.879,0.371,0.127,B2

# Molecular target: T2, human CD98, endogenously expressed on …
# Assay: cell-based or functional assay
Molt4 IC50 [nM],Binder,% Cell Viability at 50 nM [%]
0.028,B3,2.5
0.04,B4,3.4
0.062,B5,3.5
0.068,B6,1.1
0.144,B7,4.5
0.208,B8,1.9
0.091,B9,1.8
0.061,B10,6.5
0.072,B11,6.3
0.023,B12,0.9
0.042,B13,3.3
0.226,B14,10.7
0.015,B15,1
0.067,B16,16.4
0.109,B17,14.3
0.199,B18,5.8
0.074,B19,1.5
0.053,B20,14.8
0.156,B21,3.5
